T1: human recombinant renin (human, UniProt P00797 67-406, limits assumed)
T1 sequence (looked up): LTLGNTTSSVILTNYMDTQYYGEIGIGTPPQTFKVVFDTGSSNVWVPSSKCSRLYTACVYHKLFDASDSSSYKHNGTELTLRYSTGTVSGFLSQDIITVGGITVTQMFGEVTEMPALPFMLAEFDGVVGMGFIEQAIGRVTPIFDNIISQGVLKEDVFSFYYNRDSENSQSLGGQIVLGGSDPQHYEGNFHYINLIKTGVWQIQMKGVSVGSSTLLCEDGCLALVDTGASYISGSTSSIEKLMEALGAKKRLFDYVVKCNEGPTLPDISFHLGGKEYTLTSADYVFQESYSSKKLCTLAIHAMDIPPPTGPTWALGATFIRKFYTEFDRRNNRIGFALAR


Experiments:
human recombinant renin = molecular target: T1, human recombinant renin; assay: cell-based or functional assay
[1] = molecular target: angiotensin converting enzyme (ACE); assay: cell-based or functional assay

% Inhibition of renin activity at 1 mg/mL peptide (fluorometric Renin Inhibitor Screening Assay Kit) (human recombinant renin) [%] | IC50 of in vitro ACE activity inhibition (FAPGG substrate, absorbance at 345 nM) [1] [µg/mL] | Binder
107 | 550 | TGSYTEGWS [isolated peptide 4, TGSYTEGWS (Thr-Gly-Ser-Tyr-Thr-Glu-Gly-Trp-Ser)]
-40.5 | 250 | YFVP [isolated peptide 1, YFVP (Tyr-Phe-Val-Pro)]
-54.5 | 510 | SGRDP [isolated peptide 2, SGRDP (Ser-Gly-Arg-Asp-Pro)]
-46.4 | 21 | MVWGP [isolated peptide 3, MVWGP (Met-Val-Trp-Gly-Pro)]

— patent US20210017240A1 (ACCESS BUSINESS GROUP INTERNATIONAL, published 2021)
